Legend:
[1] = Proteolytic activity of papain grafted onto DAS, American Pharmacopeia method (USP XXI); assay type: biochemical; conditions: papain grafted onto DAS preparations of variable aldehyde titre
Procedure: (§1) The proteolytic activity of the product of Example 1 was determined by the American Pharmacopeia method (USP XXI). Various DAS preparations of variable aldehyde titre were used, obtained by varying the reaction times, in order to establish a comparison between the aldehyde titre, the solubility of the enzymatic preparation and the activity of this latter.

[2] = Water solubility of the supported enzyme; assay type: physicochemical; conditions: for WATER SOLUBILITY: papain grafted onto DAS preparations of variable aldehyde titre
Procedure: as §1

[3] = Stability in solid state (retention of enzyme activity); assay type: physicochemical
[4] = Stability in aqueous solution (retention of enzyme activity); assay type: physicochemical
[5] = Release of enzyme from the polymer matrix; assay type: physicochemical; conditions: aqueous solution

B1: DAS.2: papain grafted onto starch polyaldehyde (DAS) of aldehyde titre 5.8 x 10⁻³ meq CHO/mg and reduced with sodium borohydride (conjugate, UniProt P00784 134-345, looked up)
Papain: IPEYVDWRQKGAVTPVKNQGSCGSCWAFSAVVTIEGIIKIRTGNLNEYSEQELLDCDRRSYGCNGGYPWSALQLVAQYGIHYRNTYPYEGVQRYCRSREKGPYAAKTDGVRQVQPYNEGALLYSIANQPVSVVLEAAGKDFQLYRGGIFVGPCGNKVDHAVAAVGYGPNYILIKNSWGTGWGENGYIRIKRGTGNSYGVCGLYTSSFYPVKN
modifications: grafted onto starch polyaldehyde, borohydride-reduced
notes: papain grafted onto starch polyaldehyde (DAS) of aldehyde titre 5.8 x 10⁻³ meq CHO/mg and reduced with sodium borohydride
[1]
  µg OF ACTIVE PAPAIN per 100 mg POLYMER: 900 µg per 100 mg POLYMER
[2]; lyophilized product
  water-solubility: good water-solubility
[2]
  WATER SOLUBILITY: YES
[3]
  time for which the activity is maintained: at least two years
[4]
  time for which the activity is maintained: at least six months
[5]
  time without release of enzyme: at least six months

B2: DAS.1: papain grafted onto starch polyaldehyde (DAS) of aldehyde titre 3.16 x 10⁻³ meq CHO/mg and reduced with sodium borohydride (conjugate, UniProt P00784 134-345, looked up)
Papain: B1 Papain
modifications: grafted onto starch polyaldehyde, borohydride-reduced
notes: papain grafted onto starch polyaldehyde (DAS) of aldehyde titre 3.16 x 10⁻³ meq CHO/mg and reduced with sodium borohydride
[1]
  µg OF ACTIVE PAPAIN per 100 mg POLYMER: 800 µg per 100 mg POLYMER
[2]
  WATER SOLUBILITY: MICELLE

B3: DAS.3: papain grafted onto starch polyaldehyde (DAS) of aldehyde titre 8 x 10⁻³ meq CHO/mg and reduced with sodium borohydride (conjugate, UniProt P00784 134-345, looked up)
Papain: B1 Papain
modifications: grafted onto starch polyaldehyde, borohydride-reduced
notes: papain grafted onto starch polyaldehyde (DAS) of aldehyde titre 8 x 10⁻³ meq CHO/mg and reduced with sodium borohydride
[1]
  µg OF ACTIVE PAPAIN per 100 mg POLYMER: 200 µg per 100 mg POLYMER
[2]
  WATER SOLUBILITY: YES

B4: DAS.4: papain grafted onto starch polyaldehyde (DAS) of aldehyde titre 4.68 x 10⁻³ meq CHO/mg and reduced with sodium borohydride (conjugate, UniProt P00784 134-345, looked up)
Papain: B1 Papain
modifications: grafted onto starch polyaldehyde, borohydride-reduced
notes: papain grafted onto starch polyaldehyde (DAS) of aldehyde titre 4.68 x 10⁻³ meq CHO/mg and reduced with sodium borohydride
[1]
  µg OF ACTIVE PAPAIN per 100 mg POLYMER: 500 µg per 100 mg POLYMER
[2]
  WATER SOLUBILITY: YES

From patent EP0363874A1, “Enzymes bound to a polymer matrix in water-soluble form” (Etablissement TEXCONTOR, priority 1988, dated 1990)
